Source: article PMC13674618, “Electropolymerized Aptasensor for Femtogram‐Level Cytokine Detection”

Assays:
[1] = target: Tumour necrosis factor-alpha (TNF-alpha) (Homo sapiens, UniProt P01375 77-233); assay: OECT gate-voltage shift; negligible, non-monotonic shifts over the tested range; Kelvin probe in agreement; PBS (immobilization and rinse PBS pH 7.4); FO-SPR 10 min per concentration step; aptamer folded 95 C 5 min, ice 15 min, RT 5 min; assay temperature not stated; conditions: protein: recombinant; chain copies: 3; label: none
Sequence of Tumour necrosis factor-alpha (TNF-alpha) (P01375 77-233): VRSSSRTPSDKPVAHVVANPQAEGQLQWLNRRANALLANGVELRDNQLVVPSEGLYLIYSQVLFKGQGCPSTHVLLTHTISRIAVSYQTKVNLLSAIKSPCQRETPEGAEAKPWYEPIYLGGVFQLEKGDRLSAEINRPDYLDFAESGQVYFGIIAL

Interleukin-6 (IL-6) = Interleukin-6 (IL-6) (UniProt P05231 30-212); assay: FO-SPR; aptamer immobilized on pALT5c film; 100 fg/mL to 1 ug/mL IL-6 in PBS; no response without aptamer; PBS (immobilization and rinse PBS pH 7.4); FO-SPR 10 min per concentration step; aptamer folded 95 C 5 min, ice 15 min, RT 5 min; assay temperature not stated; conditions: label: none
Sequence of Interleukin-6 (IL-6) (P05231 30-212): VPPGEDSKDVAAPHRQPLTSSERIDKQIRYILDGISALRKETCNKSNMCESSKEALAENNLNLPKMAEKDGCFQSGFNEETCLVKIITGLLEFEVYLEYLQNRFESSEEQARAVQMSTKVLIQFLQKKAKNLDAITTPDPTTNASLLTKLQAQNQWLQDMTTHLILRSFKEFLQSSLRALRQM

B1: IL-6 specific aptamer (Apt) (ssDNA)
DNA: CTTCCAACGCTCGTATTGTCAGTCTTTAGT
modifications: 5'-AminoC6
binding result [1]: no binding | binding result (Interleukin-6 (IL-6)): binds
